T1: APBA1_1, Q02410
T1 sequence (Q02410 651-752, limits assumed, looked up): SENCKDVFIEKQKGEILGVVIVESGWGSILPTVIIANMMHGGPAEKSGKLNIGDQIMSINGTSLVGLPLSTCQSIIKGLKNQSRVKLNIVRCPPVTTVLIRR

T2: GRIP1_2, Q9Y3R0
T2 sequence (Q9Y3R0 145-248, limits assumed, looked up): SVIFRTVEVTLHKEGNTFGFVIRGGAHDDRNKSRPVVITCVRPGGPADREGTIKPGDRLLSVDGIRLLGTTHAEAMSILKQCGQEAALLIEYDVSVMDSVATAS

T3: GRIP1_3, Q9Y3R0
T3 sequence (Q9Y3R0 247-346, limits assumed, looked up): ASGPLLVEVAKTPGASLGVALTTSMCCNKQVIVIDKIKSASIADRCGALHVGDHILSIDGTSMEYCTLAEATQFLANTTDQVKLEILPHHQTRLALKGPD

T4: GRIP1_7, Q9Y3R0
T4 sequence (Q9Y3R0 999-1096, limits assumed, looked up): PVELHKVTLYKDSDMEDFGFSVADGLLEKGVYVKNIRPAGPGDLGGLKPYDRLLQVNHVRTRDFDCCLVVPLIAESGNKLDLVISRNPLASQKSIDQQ

T5: LIN7A, O14910
T5 sequence (O14910 103-200, limits assumed, looked up): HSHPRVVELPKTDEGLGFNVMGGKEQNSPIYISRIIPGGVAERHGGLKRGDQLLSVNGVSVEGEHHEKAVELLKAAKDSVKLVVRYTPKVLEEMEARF

T6: MPDZ_10, O75970
T6 sequence (O75970 1624-1722, limits assumed, looked up): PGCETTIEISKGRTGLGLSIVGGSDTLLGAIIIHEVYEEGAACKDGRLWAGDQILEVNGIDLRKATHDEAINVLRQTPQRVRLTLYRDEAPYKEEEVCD

T7: NHERF3_1, Q5T2W1
T7 sequence (Q5T2W1 4-100, limits assumed, looked up): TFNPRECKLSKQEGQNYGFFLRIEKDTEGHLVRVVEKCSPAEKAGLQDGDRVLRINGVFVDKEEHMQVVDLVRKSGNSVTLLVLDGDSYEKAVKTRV

T8: PCLO, Q9Y6V0
T8 sequence (Q9Y6V0 4491-4600, limits assumed, looked up): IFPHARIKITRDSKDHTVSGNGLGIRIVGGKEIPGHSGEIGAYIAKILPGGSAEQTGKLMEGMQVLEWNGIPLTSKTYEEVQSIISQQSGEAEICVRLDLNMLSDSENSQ

T9: RADIL, Q96JH8
T9 sequence (Q96JH8 971-1071, limits assumed, looked up): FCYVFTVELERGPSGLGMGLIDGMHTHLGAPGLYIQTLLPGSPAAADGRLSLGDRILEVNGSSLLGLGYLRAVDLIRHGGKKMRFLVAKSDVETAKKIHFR

T10: TIAM2, Q8IVF5
T10 sequence (Q8IVF5 885-986, limits assumed, looked up): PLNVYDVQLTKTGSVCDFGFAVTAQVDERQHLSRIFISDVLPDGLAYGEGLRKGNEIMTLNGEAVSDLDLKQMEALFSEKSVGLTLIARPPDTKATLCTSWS

B1: ABCA2, Q9BZC7 (peptide)
chain: QLSFNTDTLC

molecular target: AHNAK1, Q09666; assay: holdup assay; set-up: key: below the threshold = too weak to quantify, mostly under pKd 3.1 to 4; details: plain residues with an end cap or a label only (N-terminal biotin on a linker: ado-ado)
Sequence (Q09666 4-100): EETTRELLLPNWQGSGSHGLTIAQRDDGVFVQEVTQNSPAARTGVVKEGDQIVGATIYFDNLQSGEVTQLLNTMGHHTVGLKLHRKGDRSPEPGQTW

Binder	pKd
B1	below the threshold

molecular target: T1, APBA1_1, Q02410; assay: holdup assay; set-up: key: below the threshold = too weak to quantify, mostly under pKd 3.1 to 4; details: plain residues with an end cap or a label only (N-terminal biotin on a linker: ado-ado)

Binder	pKd
B1	below the threshold

molecular target: DLG1_1, Q12959; assay: holdup assay; set-up: key: below the threshold = too weak to quantify, mostly under pKd 3.1 to 4; details: plain residues with an end cap or a label only (N-terminal biotin on a linker: ado-ado)

Binder	pKd
B1	3.87

molecular target: DLG1_3, Q12959; assay: holdup assay; set-up: key: below the threshold = too weak to quantify, mostly under pKd 3.1 to 4; details: plain residues with an end cap or a label only (N-terminal biotin on a linker: ado-ado)

Binder	pKd
B1	below the threshold

molecular target: DLG2_2, Q15700; assay: holdup assay; set-up: key: below the threshold = too weak to quantify, mostly under pKd 3.1 to 4; details: plain residues with an end cap or a label only (N-terminal biotin on a linker: ado-ado)

Binder	pKd
B1	below the threshold

molecular target: DLG2_3, Q15700; assay: holdup assay; set-up: key: below the threshold = too weak to quantify, mostly under pKd 3.1 to 4; details: plain residues with an end cap or a label only (N-terminal biotin on a linker: ado-ado)

Binder	pKd
B1	3.73

molecular target: GIPC2, Q8TF65; assay: holdup assay; set-up: key: below the threshold = too weak to quantify, mostly under pKd 3.1 to 4; details: plain residues with an end cap or a label only (N-terminal biotin on a linker: ado-ado)
Sequence (Q8TF65 112-203): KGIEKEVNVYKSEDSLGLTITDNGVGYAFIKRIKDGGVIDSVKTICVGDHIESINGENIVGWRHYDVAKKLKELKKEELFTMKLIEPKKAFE

Binder	pKd
B1	below the threshold

molecular target: GOPC, Q9HD26; assay: holdup assay; set-up: key: below the threshold = too weak to quantify, mostly under pKd 3.1 to 4; details: plain residues with an end cap or a label only (N-terminal biotin on a linker: ado-ado)

Binder	pKd
B1	below the threshold

molecular target: GORASP2, Q9H8Y8; assay: holdup assay; set-up: key: below the threshold = too weak to quantify, mostly under pKd 3.1 to 4; details: plain residues with an end cap or a label only (N-terminal biotin on a linker: ado-ado)

Binder	pKd
B1	below the threshold

molecular target: GRID2IP_1, A4D2P6; assay: holdup assay; set-up: key: below the threshold = too weak to quantify, mostly under pKd 3.1 to 4; details: plain residues with an end cap or a label only (N-terminal biotin on a linker: ado-ado)
Sequence (A4D2P6 1-87): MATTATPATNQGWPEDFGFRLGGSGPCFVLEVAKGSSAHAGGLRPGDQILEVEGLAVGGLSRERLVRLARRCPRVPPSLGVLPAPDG

Binder	pKd
B1	below the threshold

molecular target: T2, GRIP1_2, Q9Y3R0; assay: holdup assay; set-up: key: below the threshold = too weak to quantify, mostly under pKd 3.1 to 4; details: plain residues with an end cap or a label only (N-terminal biotin on a linker: ado-ado)

Binder	pKd
B1	below the threshold

molecular target: T3, GRIP1_3, Q9Y3R0; assay: holdup assay; set-up: key: below the threshold = too weak to quantify, mostly under pKd 3.1 to 4; details: plain residues with an end cap or a label only (N-terminal biotin on a linker: ado-ado)

Binder	pKd
B1	below the threshold

molecular target: T4, GRIP1_7, Q9Y3R0; assay: holdup assay; set-up: key: below the threshold = too weak to quantify, mostly under pKd 3.1 to 4; details: plain residues with an end cap or a label only (N-terminal biotin on a linker: ado-ado)

Binder	pKd
B1	below the threshold

molecular target: GRIP2_7, Q9C0E4; assay: holdup assay; set-up: key: below the threshold = too weak to quantify, mostly under pKd 3.1 to 4; details: plain residues with an end cap or a label only (N-terminal biotin on a linker: ado-ado)
Sequence (Q9C0E4 934-1023): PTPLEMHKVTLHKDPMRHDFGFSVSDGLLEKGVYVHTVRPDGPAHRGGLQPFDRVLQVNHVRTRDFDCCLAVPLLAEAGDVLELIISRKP

Binder	pKd
B1	below the threshold

molecular target: Inadl_1, Q8NI35; assay: holdup assay; set-up: key: below the threshold = too weak to quantify, mostly under pKd 3.1 to 4; details: plain residues with an end cap or a label only (N-terminal biotin on a linker: ado-ado)
Sequence (Q8NI35 113-229): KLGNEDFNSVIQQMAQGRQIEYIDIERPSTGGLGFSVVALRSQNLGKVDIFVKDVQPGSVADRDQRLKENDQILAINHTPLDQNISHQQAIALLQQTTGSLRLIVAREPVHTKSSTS

Binder	pKd
B1	below the threshold

molecular target: LDB3, O75112; assay: holdup assay; set-up: key: below the threshold = too weak to quantify, mostly under pKd 3.1 to 4; details: plain residues with an end cap or a label only (N-terminal biotin on a linker: ado-ado)
Sequence (O75112 1-94): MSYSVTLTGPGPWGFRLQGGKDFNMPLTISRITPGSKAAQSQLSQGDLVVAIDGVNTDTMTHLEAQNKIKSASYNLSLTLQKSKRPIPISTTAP

Binder	pKd
B1	below the threshold

molecular target: T5, LIN7A, O14910; assay: holdup assay; set-up: key: below the threshold = too weak to quantify, mostly under pKd 3.1 to 4; details: plain residues with an end cap or a label only (N-terminal biotin on a linker: ado-ado)

Binder	pKd
B1	below the threshold

molecular target: MAGI2_2, Q86UL8; assay: holdup assay; set-up: key: below the threshold = too weak to quantify, mostly under pKd 3.1 to 4; details: plain residues with an end cap or a label only (N-terminal biotin on a linker: ado-ado)
Sequence (Q86UL8 410-522): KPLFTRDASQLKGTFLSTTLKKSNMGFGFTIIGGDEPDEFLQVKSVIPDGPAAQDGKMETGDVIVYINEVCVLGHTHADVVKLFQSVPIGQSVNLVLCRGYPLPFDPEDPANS

Binder	pKd
B1	below the threshold

molecular target: MAGI2_3, Q86UL8; assay: holdup assay; set-up: key: below the threshold = too weak to quantify, mostly under pKd 3.1 to 4; details: plain residues with an end cap or a label only (N-terminal biotin on a linker: ado-ado)
Sequence (Q86UL8 600-682): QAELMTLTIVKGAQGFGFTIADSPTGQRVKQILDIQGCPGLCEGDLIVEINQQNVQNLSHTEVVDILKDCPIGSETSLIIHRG

Binder	pKd
B1	below the threshold

molecular target: T6, MPDZ_10, O75970; assay: holdup assay; set-up: key: below the threshold = too weak to quantify, mostly under pKd 3.1 to 4; details: plain residues with an end cap or a label only (N-terminal biotin on a linker: ado-ado)

Binder	pKd
B1	below the threshold

molecular target: T7, NHERF3_1, Q5T2W1; assay: holdup assay; set-up: key: below the threshold = too weak to quantify, mostly under pKd 3.1 to 4; details: plain residues with an end cap or a label only (N-terminal biotin on a linker: ado-ado)

Binder	pKd
B1	4.07

molecular target: NHERF4_4, Q86UT5; assay: holdup assay; set-up: key: below the threshold = too weak to quantify, mostly under pKd 3.1 to 4; details: plain residues with an end cap or a label only (N-terminal biotin on a linker: ado-ado)
Sequence (Q86UT5 464-550): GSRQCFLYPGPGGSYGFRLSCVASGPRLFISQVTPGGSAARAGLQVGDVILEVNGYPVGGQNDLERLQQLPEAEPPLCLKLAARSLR

Binder	pKd
B1	below the threshold

molecular target: T8, PCLO, Q9Y6V0; assay: holdup assay; set-up: key: below the threshold = too weak to quantify, mostly under pKd 3.1 to 4; details: plain residues with an end cap or a label only (N-terminal biotin on a linker: ado-ado)

Binder	pKd
B1	below the threshold

molecular target: T9, RADIL, Q96JH8; assay: holdup assay; set-up: key: below the threshold = too weak to quantify, mostly under pKd 3.1 to 4; details: plain residues with an end cap or a label only (N-terminal biotin on a linker: ado-ado)

Binder	pKd
B1	3.49

molecular target: SCRIB_3, Q14160; assay: holdup assay; set-up: key: below the threshold = too weak to quantify, mostly under pKd 3.1 to 4; details: plain residues with an end cap or a label only (N-terminal biotin on a linker: ado-ado)
Sequence (Q14160 999-1103): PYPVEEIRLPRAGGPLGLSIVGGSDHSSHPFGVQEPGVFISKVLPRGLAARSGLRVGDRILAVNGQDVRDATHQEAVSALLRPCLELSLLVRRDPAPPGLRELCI

Binder	pKd
B1	below the threshold

molecular target: T10, TIAM2, Q8IVF5; assay: holdup assay; set-up: key: below the threshold = too weak to quantify, mostly under pKd 3.1 to 4; details: plain residues with an end cap or a label only (N-terminal biotin on a linker: ado-ado)

Binder	pKd
B1	4.13

molecular target: TJP1_2, Q07157; assay: holdup assay; set-up: key: below the threshold = too weak to quantify, mostly under pKd 3.1 to 4; details: plain residues with an end cap or a label only (N-terminal biotin on a linker: ado-ado)
Sequence (Q07157 181-274): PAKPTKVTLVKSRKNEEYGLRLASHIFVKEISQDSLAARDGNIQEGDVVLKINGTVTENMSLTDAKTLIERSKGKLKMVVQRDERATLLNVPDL

Binder	pKd
B1	below the threshold

molecular target: TJP1_3, Q07157; assay: holdup assay; set-up: key: below the threshold = too weak to quantify, mostly under pKd 3.1 to 4; details: plain residues with an end cap or a label only (N-terminal biotin on a linker: ado-ado)
Sequence (Q07157 416-512): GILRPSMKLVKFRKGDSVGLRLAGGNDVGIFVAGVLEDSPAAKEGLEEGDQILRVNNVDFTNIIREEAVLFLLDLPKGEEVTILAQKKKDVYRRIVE

Binder	pKd
B1	below the threshold
